This is an account of results in patent publication US20210395318A1.

The target of the assay is human CD40 on primary human B cells or human monocyte-derived dendritic cells (human) (UniProt P25942). As to the kind of experiment: cell-based or functional assay.

Where “and” joins values, the source holds several entries; their conditions need not be identical. Equal values may be shown once.

human CD40 on primary human B cells or human monocyte-derived dendritic cells (human), sequence (P25942 21-277 H80K/K81H limits assumed): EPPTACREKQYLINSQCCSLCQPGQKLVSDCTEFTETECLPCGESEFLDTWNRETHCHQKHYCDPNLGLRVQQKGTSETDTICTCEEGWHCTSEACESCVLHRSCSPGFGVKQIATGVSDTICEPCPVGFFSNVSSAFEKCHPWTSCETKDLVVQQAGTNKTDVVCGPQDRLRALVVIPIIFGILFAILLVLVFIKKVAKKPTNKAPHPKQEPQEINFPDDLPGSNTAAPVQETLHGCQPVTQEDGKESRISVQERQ

With “anti-CD40 monoclonal antibody (corresponds to sequence 21.4.1 of U.S. Pat. No. 7,338,660 B2)”, the EC50, % CD86, human B cells with FAP-CHO cells, w HSA is 0.88 nM and 0.3 nM; the EC50, % CD86, human B cells with FAP-CHO cells, w/o HSA is 1.9 nM and 0.51 nM; the EC50, MFI CD86, human B cells with FAP-CHO cells, w HSA is 0.51 nM and 2.05 nM; the EC50, MFI CD86, human B cells with FAP-CHO cells, w/o HSA is 1.13 nM and 4.73 nM. The Efficacy [MFI at highest dose], MFI CD86, human B cells with FAP-CHO cells, w HSA is 1530 MFI and 1870 MFI; the Efficacy [MFI at highest dose], MFI CD86, human B cells with FAP-CHO cells, w/o HSA was 1340 MFI and 2060 MFI; the Efficacy [MFI at highest dose], MFI CD86, human B cells with WT-CHO cells (no FAP), w HSA is 1900 MFI and 1470 MFI; the Efficacy [MFI at highest dose], MFI CD86, human B cells with WT-CHO cells (no FAP), w/o HSA was 2050 MFI and 1390 MFI.
